# Results: US10508147B2, “Anti-nodal antibodies and methods of using same” (ANN AND ROBERT H. LURIE CHILDREN'S HOSPITAL OF CHICAGO, priority 2014, dated 2019)
# Experiments:
# [1] = biological target: T1, rhNodal/rhCripto-1 complex (Homo sapiens, UniProt Q96S42); assay: SPR competition assay: rhNodal pre-incubated with 3D1 injected over Cripto-1-derivatized chip; type: binding
# T1 construct: E. coli derived His238 Leu347, with an N-terminal Met; purchased R&D Systems
# T1 sequence (Q96S42 238-347): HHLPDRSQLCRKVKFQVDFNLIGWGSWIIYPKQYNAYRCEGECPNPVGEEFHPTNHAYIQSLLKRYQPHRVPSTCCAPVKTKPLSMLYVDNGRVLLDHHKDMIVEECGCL
# Experimental: Next, experiments were conducted to assess the ability of 3D1 antibodies to inhibit binding between Nodal and Cripto-1 through SPR experiments. Experiments were performed on CM5 sensor chips with immobilized Cripto-1.
# The antibody at 1:1 molar ratio prevents the binding of hNodal to hCripto-1-1 by about 70%. Accordingly, the invention provides that, in one embodiment, 3D1 can be used to prevent binding between Cripto-1 and Nodal (e.g., for therapeutic uses described herein (e.g., to inhibit and/or neutralize Cripto-1-mediated Nodal signaling)).
# Competition assays. Competition assays were performed using Biacore sensor chips derivatized with rhCripto-1-1. The binding between immobilized rhCripto-1-1 and rhNodal was assessed by injecting solutions of the Nodal protein at increasing concentrations. rhNodal was incubated at 5 nM with 3D1 mAb at concentrations matching 1:0.5, 1:1 and 1:2 molar ratios (protein:mAb).
# SPR analyses were performed at 25° C. using HBS as running buffer. Protein immobilization was carried out following the canonical amine coupling chemistry using the surface immobilization wizard procedure, operating at 5 μL/min. […] Dissociations were monitored for at least 3 additional minutes. […]
# [2] = test system: C8161 metastatic melanoma cells; assay: C8161 lung colonization (metastasis) model in Nude mice; type: in vivo; conditions: for lung colonization: IP 3D1 vs IgG control
# Experimental: Lung tumor burden was determined as the mean percentage of lung occupied by C8161 melanoma cell colonies calculated from at least 5 different lung sections per individual mouse (See FIG. 26). Experimental Protocol: 250,000 C8161 metastatic melanoma cells were injected i. v. in Nude mice and lung colonization established. Following colonization, animals received by i.p. delivery either 3D1 monoclonal anti-Nodal antibody (100 μg/injection) or control IgG over the next 10 days, every other day (5 total injections).
# To evaluate the in vivo effects of 3D1 mAb, a metastatic melanoma lung metastasis model was established by injecting 250,000 C8161 cells intravenously in Nude mice. After 4 days during which cells were allowed to colonize the lungs, mice were separated into treatment and control groups. The treatment group received a total of 500 μg of 3D1 mAb versus 500 μg of irrelevant isotype IgG in the control group administered over 10 days (alternate day intraperitoneal injection (IP) of 100 μg of either 3D1 mAb or IgG). At the end of the treatment period, mice were sacrificed and lungs harvested and processed for histologic evaluation of lung tumor burden and immunohistochemistry. Lung tumor burden was determined by evaluating the mean percentage of lung tissue occupied by C8161 in at least 4 separate fields at low power (10× objective) in lungs from at least 4 separate mice for each group and performed by 2 different observers. A final mean±SEM was calculated from the separate means determined by the individual observers.
# Four micron thick, formalin fixed, paraffin embedded tissue sections were prepared and immunohistochemistry was carried out on a Dako Plus autostainer (DAKO, Inc, Carpenteria, Calif.). Following antigen retrieval and blocking steps, sections were incubated in primary antibody for 60 mins, followed by appropriate biotinylated secondary antibody (Biocare Medical, Conrad, Calif.), and then streptavidin-horseradish peroxidase (Thermo Scientific Lab Vision). Color was developed with 3,3′-diaminobenzidine substrate (Thermo Scientific Lab Vision) and sections were counterstained with hematoxylin (Biocare Medical, LLC). As a negative control, adjacent serial sections were incubated with species appropriate irrelevant IgG (Jackson ImmunoResearch Labs) at the same concentration as primary antibodies. Similar to the lung tumor burden evaluation described above, mean percentage of positive staining±SEM was determined by 2 different observers, each calculating the ratio of positive cells/total number of cells×100 for 4 separate high power fields (63× objective) from at least 2 different mice per group.
# [3] = test system: A375SM human melanoma cell line; assay: Western blot of A375SM cells treated with BRAFi (dabrafenib) or 3D1; type: cell-based; conditions: 72 hr
# Experimental: To determine the level of Nodal expression in brain, kidney, liver, pancreas, heart and skeletal muscle ready to use adult tissue extracts for Western blotting (WB) were purchased from Santa Cruz Biotechnology. For WB experiments of cell lines, whole cell lysates were prepared and quantified. SDS-PAGE gel electrophoresis and WB were performed using standard techniques. PVDF membranes were blocked in 5% non-fat milk or 5% BSA and antibodies diluted in either 5% non-fat milk or 5% bovine serum albumin overnight at 4° C., depending on the manufacturer's recommendations. Signal was detected using West Pico chemiluminescence reagent (Thermo Fisher) and exposure to x-ray film.
molecule,measurement,setting,value
"3D1: mouse monoclonal anti-Nodal antibody raised against hNodal(44-67); light chain SEQ ID NO:1, heavy chains SEQ ID NO:2 and 3 (protein, not fully specified; (120)..(120) Xaa can be any naturally occurring amino acid) light: DIKMTQSPASLSASVGETVTITCRASGNIHNYLAWYQQKQGKSPQLLVYNAKTLADGVPSRFSGSGSGTQYSLKINSLQPEDFGSYYCQHFWSTPHVRCWDQAGTETEAW heavy 1: VKLVESGGGLVKPGGSLKLSCAASGFTFSSYAMSWVRQTPEKRLEWVASISSGGCTYYPDSVKGRFTISRDNARNILYLQMSSLRSEDTAMYYCARGSMITADGNSLLLCYGLLGSRNLXHR heavy 2: VKLVESGGGLVQPGGSMKLSCVASGFTFRNYWMSWVRQSPEKGLEWVAEIRLKSDNYAARYAESVKGKFTISRDDSKSRLYLQMNSLRAEDTGIYYCTGIRRFAYWGQGTL",inhibition of the binding of Nodal to Cripto-1,"[1]; 3D1 mAb at 5 nM (1:1 molar ratio), rhNodal 5 nM",approximately 70%
same,prevention of binding of hNodal to hCripto-1,"[1]; antibody at 1:1 molar ratio, 5 nM Nodal",about 70%
same,mean percentage (±SEM) of cells staining for p27 in lung colonies,"[2]; IHC, N=6",39.5%±17%
same,mean percentage (±SEM) of cells with nuclear localization of P-Smad2 in lung colonies,"[2]; IHC, N=6",39±8.9%
same,percentage (+/−SEM) of cells staining for Cyclin B1 in lung colonies,"[2]; IHC, N=6",25.9%±9.4%
same,lung tumor burden: mean percentage (±SEM) of lung tissue occupied by C8161 colonies,"[2]; IP 100 μg alternate days over 10 days, N=8",25.8%±4.6%
same,lung colonization,[2],reduced lung colonization
same,lung colonization,[2]; listed as 3D1 mAb,significantly reduced
same,Nodal expression,[3],more dramatic reduction in Nodal expression
same,Nodal expression,[3]; listed as 3D1 mAb,significantly reduced
